We go through three molecules from patent US20080299072A1.

Assay [1] concerns the target CCR5, P51681. The experiment in a line: competition SPA, displacement of 125I-MIP-1α from CCR5 CHO membranes. As to conditions: remark: other sources report otherwise. Background: Loss of bound radioactivity is the signal in a displacement assay; it reports binding, not function.
In assay [2] the target is CCR5, P51681. Briefly: competition SPA, displacement of 125I-MIP-1α from CCR5 CHO membranes (FIG. 2). The note with it: remark: other sources report otherwise.
Sequence of CCR5, P51681 (P51681 whole entry): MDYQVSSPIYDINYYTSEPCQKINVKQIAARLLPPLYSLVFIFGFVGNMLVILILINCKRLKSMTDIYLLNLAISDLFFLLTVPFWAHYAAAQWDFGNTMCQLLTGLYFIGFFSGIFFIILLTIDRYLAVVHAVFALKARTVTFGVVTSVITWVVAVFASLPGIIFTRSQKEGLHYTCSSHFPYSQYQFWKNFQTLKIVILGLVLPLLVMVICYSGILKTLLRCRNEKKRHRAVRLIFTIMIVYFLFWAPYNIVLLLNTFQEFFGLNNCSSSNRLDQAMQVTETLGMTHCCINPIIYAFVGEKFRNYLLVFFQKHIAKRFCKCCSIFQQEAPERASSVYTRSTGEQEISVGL

B1: PEG-5 kDa-RANTES, P13501 24-91 (ligand)
chain: {mPEG‑ButyrALD 5 kDa}-SPYSSDTTPCCFAYIARPLPRAHIKEYFYTSGKCSNPAVVFVTRKNRQVCANPEKKWVREYINSLEMS
For B1, the half-maximal inhibitory concentration (IC50) (commonly the concentration that gives 50% inhibition) with CCR5, P51681 [1] was 2.8 nM; with CCR5, P51681 [2] it was 2.2 nM.

B2: PEG-2 kDa-RANTES, P13501 24-91 (ligand)
chain: {mPEG‑ButyrALD 2 kDa}-SPYSSDTTPCCFAYIARPLPRAHIKEYFYTSGKCSNPAVVFVTRKNRQVCANPEKKWVREYINSLEMS
With B2, the IC50 with CCR5, P51681 [1] was 10.6 nM; in the assay with CCR5, P51681 [2] it was 3.1 nM.

B3: Mature wildtype (wt) human RANTES, P13501 24-91 (ligand)
chain: SPYSSDTTPCCFAYIARPLPRAHIKEYFYTSGKCSNPAVVFVTRKNRQVCANPEKKWVREYINSLEMS
Consider B3, for which the IC50 with CCR5, P51681 [1] stood at 1.6 nM; with CCR5, P51681 [2], 1.3 nM.
